Assay results taken from patent US20260001961A1 (ALLIGATOR BIOSCIENCE, published 2026).
Positions count from the first letter of the chain named. Names and notes keep the numbering of the source. Read-outs that look alike come from different tables or passages of the source.

Experiments:
[1] = molecular target: T1, 5T4 expressed on CHO cells (UniProt Q13641 32-420, limits assumed); assay: flow cytometry on CHO cells expressing 5T4, anti-human IgG Fcg-PE; CHOwt cells as control
T1 construct: whole, on cells; also called CHO-5T4; 5T4 expressing CHO cells
T1 sequence (looked up): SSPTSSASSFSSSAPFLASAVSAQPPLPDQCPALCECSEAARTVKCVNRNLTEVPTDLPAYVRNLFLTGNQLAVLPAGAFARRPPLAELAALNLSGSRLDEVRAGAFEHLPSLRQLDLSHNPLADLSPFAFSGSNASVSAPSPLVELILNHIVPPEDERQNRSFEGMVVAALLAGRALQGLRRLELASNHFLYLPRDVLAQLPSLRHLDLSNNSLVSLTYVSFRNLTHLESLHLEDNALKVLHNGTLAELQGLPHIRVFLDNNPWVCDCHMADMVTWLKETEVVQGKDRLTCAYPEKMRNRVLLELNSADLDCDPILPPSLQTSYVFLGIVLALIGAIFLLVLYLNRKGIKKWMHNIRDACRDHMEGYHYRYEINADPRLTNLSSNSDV
Procedure: (§1) Binding to respective targets expressed on cells were evaluated using flow cytometry. I brief, CHO cells modified to express 5T4, B16 cells modified to express CD40 as well as the wildtype CHO and B16 cell lines were incubated with titrated concentrations of RUBY™ bsAbs. Binding of the antibodies was detected using fluorochrome-conjugated anti-human IgG and analyzed using flow cytometry.

CD40 expressed on cells [2] = molecular target: T2, CD40 expressed on cells (UniProt P25942 21-277); assay: flow cytometry on B16 cells expressing CD40, anti-human IgG Fcg-PE; B16wt cells as control
T2 construct: whole, on cells; also called B16-CD40; CD40 expressing B16 cells
T2 sequence (P25942 21-277 limits assumed): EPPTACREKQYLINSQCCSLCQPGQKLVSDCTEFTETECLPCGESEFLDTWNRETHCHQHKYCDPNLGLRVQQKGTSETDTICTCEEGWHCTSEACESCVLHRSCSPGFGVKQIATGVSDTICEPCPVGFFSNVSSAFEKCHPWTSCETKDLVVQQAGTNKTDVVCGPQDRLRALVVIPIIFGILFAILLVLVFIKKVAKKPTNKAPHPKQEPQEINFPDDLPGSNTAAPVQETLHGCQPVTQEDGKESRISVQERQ
Procedure: as §1

5T4 [3] = molecular target: T3, 5T4 (UniProt Q13641 32-355); assay: dual target ELISA with 5T4 and CD40 (one coated, the other biotinylated; which is not stated), streptavidin-HRP; signal needs both targets
T3 construct: also called 5T4 antigen (dual target ELISA)
T3 sequence (looked up): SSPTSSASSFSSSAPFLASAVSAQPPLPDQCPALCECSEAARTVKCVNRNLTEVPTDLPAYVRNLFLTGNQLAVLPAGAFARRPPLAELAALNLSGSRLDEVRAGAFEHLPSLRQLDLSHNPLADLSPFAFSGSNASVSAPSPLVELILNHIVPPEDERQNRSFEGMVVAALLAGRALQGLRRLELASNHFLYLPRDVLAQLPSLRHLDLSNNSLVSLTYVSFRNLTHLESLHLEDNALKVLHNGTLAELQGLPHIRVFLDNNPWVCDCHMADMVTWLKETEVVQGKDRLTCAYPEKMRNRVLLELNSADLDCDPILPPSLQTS

CD40 [4] = molecular target: T4, CD40 (UniProt P25942 21-193); assay: as above
T4 construct: also called biotinylated CD40; CD40 antigen
T4 sequence (P25942 21-193 limits assumed): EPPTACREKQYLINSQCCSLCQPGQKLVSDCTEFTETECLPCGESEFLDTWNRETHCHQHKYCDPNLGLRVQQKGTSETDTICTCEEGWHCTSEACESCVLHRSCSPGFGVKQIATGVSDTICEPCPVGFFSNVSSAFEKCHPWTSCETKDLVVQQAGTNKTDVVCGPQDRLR

5T4 [5] = molecular target: T3, 5T4; assay: dual target ELISA (simultaneous 5T4 and CD40)
Procedure: (§2) Antigen binding was evaluated by dual target ELISA. In brief, relevant antigens were coated at 0.5 μg/ml in PBS in ELISA plates over night at 4° C. After washing in PBS/0.05% Tween 20 (PBST), the plates were blocked with PBST/2% BSA for at least 30 minutes at room temperature before being washed again. Samples serially diluted in PBST/0.5% BSA were then added and allowed to bind for at least 1 hour at room temperature. […] Dual complexed bsAb were detected with HRP-labelled streptavidin. SuperSignal Pico Luminescent was used as substrate and luminescence signals were measured using Fluostar Optima. Binding was compared between parental and mutated RUBY pairs.

EpCAM = molecular target: T5, EpCAM (UniProt P16422 24-265); assay: Octet BLI; biotinylated EpCAM on streptavidin sensor;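 note: octet RED96 kinetics: 300 s association, then 300 s dissociation in 1x Kinetic buffer, buffer-blank referenced, Savitzky-Golay smoothed, fitted to a 1:1 Langmuir binding model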
T5 construct: also called biotinylated EpCAM
T5 sequence (looked up): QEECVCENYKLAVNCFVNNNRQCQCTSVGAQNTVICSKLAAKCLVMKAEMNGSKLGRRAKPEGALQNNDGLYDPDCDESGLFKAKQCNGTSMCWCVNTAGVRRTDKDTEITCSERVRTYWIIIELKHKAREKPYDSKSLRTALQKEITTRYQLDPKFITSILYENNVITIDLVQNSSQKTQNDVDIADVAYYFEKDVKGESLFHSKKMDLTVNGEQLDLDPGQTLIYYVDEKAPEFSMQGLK
Procedure: (§3) Kinetic measurements were performed using the Octet RED96 platform (ForteBIo). […] Association was followed for 300 seconds followed by dissociation in 1x Kinetic buffer for 300 seconds. Sensor tips were regenerated using 10 mM glycine, pH 1.7. Data generated were referenced by subtracting a parallel buffer blank, the baseline was aligned with the γ-axis, inter-step correlation by alignment against dissociation was performed and the data were smoothed by a Savitzky-Golay filter in the data analysis software (v.9.0.0.14). The processed data were fitted using a 1:1 Langmuir binding model with X2 as a measurement of fitting accuracy.
(§4) Binding affinities of all the variants were determined using Octet (Pall ForteBio).

CD40 [6] = molecular target: T4, CD40; assay: dual ELISA: CD40 coated, bsAb titrated, biotinylated EpCAM + streptavidin-HRP; signal needs both targets
Procedure: (§5) Dual ELISA Plates were coated with 0.5 μg/mL CD40 in PBS over night at 4° C. After washing in PBS/0.05% Tween 20 (PBST), the plates were blocked with PBS/2% BSA for at least 30 minutes at room temperature before being washed again. Samples serially diluted in PBS/0.5% BSA were then added and allowed to bind for at least 1 hour at room temperature. […] Dual complexed bsAb with CD40 and EpCAM were detected with HRP-labelled streptavidin. SuperSignal Pico Luminescent was used as substrate and luminescence signals were measured using Fluostar Optima.

CD40 [7] = molecular target: T4, CD40; assay: Octet BLI; biotinylated CD40 on streptavidin sensor;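 note: octet RED96 biolayer interferometry, 300 s association then 300 s dissociation in kinetic buffer, buffer-blank referenced, fitted with a 1:1 Langmuir binding model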
Procedure: as §3, §4

[8] = molecular target: T1, 5T4 expressed on CHO cells; assay: flow cytometry on CHO cells expressing 5T4, anti-human IgG Fcg-PE; CHOwt cells as control; remark: listed apart in the source
Procedure: as §1

CD40 expressed on cells [9] = molecular target: T2, CD40 expressed on cells; assay: flow cytometry on B16 cells expressing CD40, anti-human IgG Fcg-PE; B16wt cells as control; remark: listed apart in the source
Procedure: as §1

CD40 [10] = molecular target: T4, CD40; assay: dual ELISA: CD40 coated, bsAb titrated, biotinylated EpCAM + streptavidin-HRP; signal needs both targets; remark: listed apart in the source
Procedure: as §5

CD40 expressed on cells [11] = molecular target: T2, CD40 expressed on cells; assay: flow cytometry on B16 cells expressing CD40, anti-human IgG Fcg-PE; B16wt cells as control; remark: listed apart in the source
Procedure: as §1

CD40 [12] = molecular target: T4, CD40; assay: dual target ELISA (simultaneous 5T4 and CD40)
Procedure: as §2

CD40 [13] = molecular target: T4, CD40; assay: dual ELISA: CD40 coated, bsAb titrated, biotinylated EpCAM + streptavidin-HRP; signal needs both targets; remark: listed apart in the source
Procedure: as §5

B1: AC_05330 (bispecific antibody, human IgG1, lambda, L234A L235A)
heavy: not shown
light: not shown
chain: EVQLLESGGGLVQPGGSLRLSCAASGFTFSSYAMSWVREAPGKGLEWVSAISGSGGSTYYADSVKGRFTISRDNSKNTLYLQMNSLRAEDTAVYYCARYYGGYYSAWMDYWGQGTLVTVSSASTKGPSVFPLAPSSKSTSGGTAALGCLVKDYFPEPVTVSWNSGALTSGVHTFPAVLQSSGLYSLSSVVEVPSSSLGTQTYICNVNHKPSNTKVDKKVEPKSC
notes: RUBY format; H1 (role heavy) = IgG heavy chain-linker-Fab light chain, L1 (role light) = IgG light chain, H2 (role chain) = Fab heavy chain; also called parental bsAb AC_05330; CD40x5T4
[1]
  EC50 (read off the curve): ~30 nM
CD40 expressed on cells [2]
  EC50 (read off the curve): ~0.8 nM
5T4 [3]
  EC50 (read off the curve): ~0.8 nM
CD40 [4]
  EC50 (read off the curve): ~0.8 nM

B2: AC_05375 (bispecific antibody, human IgG1, lambda, L234A L235A)
heavy 1: not shown
light: not shown
heavy 2: B1 chain with T58I
notes: AC_05330 with the mutation in the VH of chain H2; also called T65I mutant of AC_05330; copies: 2 + 2 + 2
[1]
  binding result: no binding (tested: about 700 nM)
CD40 expressed on cells [2]
  EC50 (read off the curve): ~0.4 nM
5T4 [5]
  binding result: no binding

B3: AC_05374 (bispecific antibody, human IgG1, lambda, L234A L235A)
heavy 1: not shown
light: not shown
heavy 2: B1 chain with T58A
notes: AC_05330 with the mutation in the VH of chain H2; also called T65A mutant of AC_05330; copies: 2 + 2 + 2
[1]
  binding result: no binding (tested: about 700 nM)
CD40 expressed on cells [2]
  EC50 (read off the curve): ~0.5 nM
5T4 [5]
  binding result: no binding

B4: AC_05373 (bispecific antibody, human IgG1, lambda, L234A L235A)
heavy 1: not shown
light: not shown
heavy 2: B1 chain with T58E
notes: AC_05330 with the mutation in the VH of chain H2; also called T65E mutant of AC_05330; copies: 2 + 2 + 2
[1]
  EC50 (read off the curve): ~30 nM
CD40 expressed on cells [2]
  EC50 (read off the curve): ~0.6 nM
5T4 [3]
  EC50 (read off the curve): ~0.7 nM
CD40 [4]
  EC50 (read off the curve): ~0.7 nM

B5: AM_4115-4131 (bispecific antibody)
heavy 1: not shown
light: DIQMTQSPSSLSASVGDRVTITCRASQSISSYLNWYQEKPGKAPKLLIYAASSLQSGVPSRFSGSGSGTDFTLTISSLQPEDFATYYCQQYGRNPPTFGQGTKLEIKRTVAAPSVFIFPPSDEQLKSGTASVVCYLNNFYPREAKVQWKVDNALQSGNSQESVTEQDSKDSTYSLWSTLTLSKADYEKHKVYACEVTHQGLSSPVTKSFNRGEC
heavy 2: EVQLLEQSGAELVRPGTSVKISCKASGYAFTNYWLGWVKERPGHGLEWIGDIFPGSGNIHYNEKFKGKATLTADKSSSTAYMQLSSLTFEDSAVYFCARLRNWDEPMDYWGQGTTVTVSSASTKGPSVFPLAPSSKSTSGGTAALGCLVKDYFPEPVTVSWNSGALTSGVHTFPAVLQSSGLWSLSSVVEVPSSSLGTQTYICNVNHKPSNTKVDKKVEPKSC
notes: AC_05293 backbone; also called double mutant I126S + Y180W; copies: 2 + 2 + 2
EpCAM
  Kd: 7.2 nM
  koff: 0.0013 s⁻¹
  kon: 180000 M⁻¹ s⁻¹
CD40 [6]
  EC50 (read off the curve): ~0.6 nM
CD40 [7]
  Kd: 0.97 nM
  koff: 0.00089 s⁻¹
  kon: 920000 M⁻¹ s⁻¹

B6: AC_05332 (bispecific antibody, human IgG1, kappa, L234A L235A)
heavy: not shown
light: B5 light with Y91T, G92Y, R93G, N94Y, P95L, P96H
chain: EVQLLESGGGLVQPGGSLRLSCAASGFTFSSYAMSWVREAPGKGLEWVSGIGSYGGGTYYADSVKGRFTISRDNSKNTLYLQMNSLRAEDTAVYYCARYVNFGMDYWGQGTLVTVSSASTKGPSVFPLAPSSKSTSGGTAALGCLVKDYFPEPVTVSWNSGALTSGVHTFPAVLQSSGLYSLSSVVEVPSSSLGTQTYICNVNHKPSNTKVDKKVEPKSC
notes: RUBY format; H1 (role heavy) = IgG heavy chain-linker-Fab light chain, L1 (role light) = IgG light chain, H2 (role chain) = Fab heavy chain; also called parental bsAb AC_05332; 5T4xCD40
[8]
  EC50 (read off the curve): ~10 nM
CD40 expressed on cells [9]
  EC50 (read off the curve): ~5 nM

B7: 4115 (bispecific antibody)
heavy 1: not shown
heavy 2: B5 heavy 2 with W183Y
light: B5 light
notes: also called single mutant I126S of AC_05293; copies: 2 + 2 + 2
CD40 [10]
  EC50 (read off the curve): ~0.2 µg/mL

B8: AC_05376 (bispecific antibody)
heavy 1: not shown
light: B5 light
heavy 2: B1 chain with T58E
notes: AC_05302 with the mutation in the VH of chain H2; also called T65E mutant of AC_05302; copies: 2 + 2 + 2
CD40 expressed on cells [11]
  binding result: no binding (tested: about 330 nM)
CD40 [12]
  binding result: no binding

B9: 4114 (bispecific antibody)
heavy 1: not shown
heavy 2: B5 heavy 2 with W183Y
light: B5 light
notes: also called single mutant I126Q of AC_05293; copies: 2 + 2 + 2
CD40 [13]
  EC50 (read off the curve): ~0.1 µg/mL

B10: 4116 (bispecific antibody)
heavy 1: not shown
heavy 2: B5 heavy 2 with W183Y
light: B5 light
notes: also called single mutant I126T of AC_05293; copies: 2 + 2 + 2
CD40 [10]
  EC50 (read off the curve): ~0.1 µg/mL

B11: AM_4115-4126 (bispecific antibody)
heavy 1: not shown
heavy 2: B5 heavy 2 with W183I
light: B5 light
notes: AC_05293 backbone; also called double mutant I126S + Y180I; copies: 2 + 2 + 2
EpCAM
  Kd: 6.9 nM
  koff: 0.0011 s⁻¹
  kon: 170000 M⁻¹ s⁻¹
CD40 [6]
  EC50 (read off the curve): ~0.5 nM
CD40 [7]
  Kd: 1.1 nM
  koff: 0.00085 s⁻¹
  kon: 740000 M⁻¹ s⁻¹

B12: 4112 (bispecific antibody)
heavy 1: not shown
heavy 2: B5 heavy 2 with W183Y
light: B5 light
notes: also called single mutant I126N of AC_05293; copies: 2 + 2 + 2
CD40 [13]
  EC50 (read off the curve): ~0.1 µg/mL

B13: AC_05370 (bispecific antibody, human IgG1, kappa, L234A L235A)
heavy 1: not shown
light: B5 light with Y91T, G92Y, R93G, N94Y, P95L, P96H
heavy 2: B6 chain with T58E
notes: AC_05332 with the mutation in the VH of chain H2; also called T65E mutant of AC_05332; copies: 2 + 2 + 2
[8]
  EC50 (read off the curve): ~9 nM
